Tested on: Escherichia coli TOP10
Assay: shrunken log2 fold change of peptide-encoding DNA abundance (4.5 h post-induction vs induction); higher = less antimicrobial activity (less host growth inhibition)
Settings: time post-induction: 4.5 h; library: site-saturation at positions 5, 18, 19, 20
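Further: peptides expressed intracellularly from a pBAD plasmid library in pooled LB shake-flask culture, induced with 0.3% L-arabinose, DNA abundance read by NGS, three biological replicates, DESeq2 with apeglm shrinkage.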

| Sequence | shrunken log2 fold change |
| --- | --- |
| RRIRFRPPRLPRPRPRPNYFPRP | -0.383 |
| RRIRLRPPRLPRPRPRPSQYPRP | -0.504 |
| RRIRWRPPRLPRPRPRPDAGPRP | 0.485 |
| RRIRCRPPRLPRPRPRPDKTPRP | -0.0581 |
| RRIRSRPPRLPRPRPRPLESPRP | 0.14 |
| RRIRARPPRLPRPRPRPTYEPRP | 0.179 |
| RRIRFRPPRLPRPRPRPDNIPRP | -0.269 |
| RRIRCRPPRLPRPRPRPLSAPRP | 0.00383 |
| RRIRDRPPRLPRPRPRPGLTPRP | 0.262 |
| RRIRWRPPRLPRPRPRPEHFPRP | 0.00426 |
| RRIRTRPPRLPRPRPRPGVRPRP | 0.272 |
| RRIRRRPPRLPRPRPRPGSHPRP | -0.154 |
| RRIRGRPPRLPRPRPRPTNRPRP | 0.258 |
| RRIRHRPPRLPRPRPRPIWRPRP | 0.139 |
| RRIRPRPPRLPRPRPRPTATPRP | 0.425 |
| RRIRPRPPRLPRPRPRPGIHPRP | -0.137 |
| RRIRVRPPRLPRPRPRPIMMPRP | -0.0138 |
| RRIRIRPPRLPRPRPRPPGSPRP | 0.0671 |
| RRIRDRPPRLPRPRPRPSLMPRP | 0.175 |
| RRIRCRPPRLPRPRPRPNQIPRP | -0.367 |
| RRIRLRPPRLPRPRPRPVRDPRP | -0.105 |
| RRIRSRPPRLPRPRPRPRHIPRP | -0.264 |
| RRIRSRPPRLPRPRPRPSSDPRP | -0.107 |
| RRIRRRPPRLPRPRPRPCAEPRP | 0.393 |
| RRIRERPPRLPRPRPRPFWCPRP | -0.014 |

| Sequence | shrunken log2 fold change |
| --- | --- |
| RRIRWRPPRLPRPRPRPWWPPRP | 0.19 |
| RRIRMRPPRLPRPRPRPIQVPRP | -0.00663 |
| RRIRCRPPRLPRPRPRPWGWPRP | 0.221 |
| RRIRYRPPRLPRPRPRPGGSPRP | -0.017 |
| RRIRHRPPRLPRPRPRPNQWPRP | -0.227 |
| RRIRQRPPRLPRPRPRPTRRPRP | 0.556 |
| RRIRGRPPRLPRPRPRPSPNPRP | 0.244 |
| RRIRERPPRLPRPRPRPFCKPRP | 0.0112 |
| RRIRARPPRLPRPRPRPNINPRP | -0.349 |
| RRIRARPPRLPRPRPRPWWWPRP | 0.0143 |
| RRIRRRPPRLPRPRPRPLQWPRP | 0.292 |
| RRIRGRPPRLPRPRPRPQLVPRP | 0.0859 |
| RRIRQRPPRLPRPRPRPWQDPRP | 0.07 |
| RRIRDRPPRLPRPRPRPFTKPRP | -0.262 |
| RRIRDRPPRLPRPRPRPQCKPRP | 0.0759 |
| RRIRFRPPRLPRPRPRPIAKPRP | -0.181 |
| RRIRERPPRLPRPRPRPAFKPRP | 0.106 |
| RRIRKRPPRLPRPRPRPEHFPRP | 0.0394 |
| RRIRWRPPRLPRPRPRPYFDPRP | -0.811 |
| RRIRNRPPRLPRPRPRPVIGPRP | -0.00814 |
| RRIRQRPPRLPRPRPRPVFKPRP | -0.0447 |
| RRIRARPPRLPRPRPRPYCGPRP | -0.192 |
| RRIRSRPPRLPRPRPRPRGVPRP | 0.749 |
| RRIRDRPPRLPRPRPRPWWNPRP | -0.0921 |
| RRIRFRPPRLPRPRPRPEQFPRP | -0.115 |

| Sequence | shrunken log2 fold change |
| --- | --- |
| RRIRCRPPRLPRPRPRPLLQPRP | 0.167 |
| RRIRERPPRLPRPRPRPKEAPRP | 0.324 |
| RRIRDRPPRLPRPRPRPRQLPRP | 0.185 |
| RRIRCRPPRLPRPRPRPMNNPRP | -0.537 |
| RRIRKRPPRLPRPRPRPHITPRP | -0.167 |
| RRIRCRPPRLPRPRPRPAFNPRP | -0.23 |
| RRIRCRPPRLPRPRPRPQGVPRP | 0.0642 |
| RRIRWRPPRLPRPRPRPFLMPRP | -0.115 |
| RRIRKRPPRLPRPRPRPPKKPRP | 0.0439 |
| RRIRVRPPRLPRPRPRPDLRPRP | -0.0613 |
| RRIRERPPRLPRPRPRPDINPRP | -0.239 |
| RRIRVRPPRLPRPRPRPQHNPRP | -0.604 |
| RRIRNRPPRLPRPRPRPTDRPRP | 0.0372 |
| RRIRVRPPRLPRPRPRPGVQPRP | -0.0209 |
| RRIRERPPRLPRPRPRPMWFPRP | -0.159 |
| RRIRLRPPRLPRPRPRPNFAPRP | 0.0393 |
| RRIRRRPPRLPRPRPRPWQDPRP | 0.0293 |
| RRIRVRPPRLPRPRPRPCPWPRP | 0.0617 |
| RRIRRRPPRLPRPRPRPRMFPRP | 0.556 |
| RRIRHRPPRLPRPRPRPNTTPRP | -0.019 |
| RRIRPRPPRLPRPRPRPNRIPRP | -0.132 |
| RRIRARPPRLPRPRPRPANEPRP | 0.173 |
| RRIRMRPPRLPRPRPRPVIFPRP | -0.237 |
| RRIRVRPPRLPRPRPRPFFEPRP | 0.142 |
| RRIRPRPPRLPRPRPRPYFWPRP | -0.137 |

| Sequence | shrunken log2 fold change |
| --- | --- |
| RRIRDRPPRLPRPRPRPMYIPRP | -0.148 |
| RRIRLRPPRLPRPRPRPMTYPRP | -0.0978 |
| RRIRLRPPRLPRPRPRPNHEPRP | -0.0961 |
| RRIRSRPPRLPRPRPRPCRWPRP | 0.0467 |
| RRIRRRPPRLPRPRPRPITVPRP | -0.179 |
| RRIRGRPPRLPRPRPRPWMEPRP | 0.563 |
| RRIRIRPPRLPRPRPRPIQCPRP | 0.0629 |
| RRIRVRPPRLPRPRPRPHQCPRP | 0.00485 |
| RRIRGRPPRLPRPRPRPSRSPRP | 0.253 |
| RRIRYRPPRLPRPRPRPEIHPRP | -0.224 |
| RRIRVRPPRLPRPRPRPMQDPRP | 0.0217 |
| RRIRTRPPRLPRPRPRPKFAPRP | 0.232 |
| RRIRERPPRLPRPRPRPCTKPRP | -0.63 |
| RRIRYRPPRLPRPRPRPDPIPRP | -0.168 |
| RRIRARPPRLPRPRPRPHAVPRP | 0.123 |
| RRIRKRPPRLPRPRPRPHWHPRP | -0.0666 |
| RRIRARPPRLPRPRPRPAKRPRP | 0.47 |
| RRIRIRPPRLPRPRPRPIKDPRP | -0.467 |
| RRIRFRPPRLPRPRPRPVCDPRP | -0.255 |
| RRIRHRPPRLPRPRPRPGKPPRP | -0.00366 |
| RRIRFRPPRLPRPRPRPGIAPRP | -0.15 |
| RRIRYRPPRLPRPRPRPRPFPRP | -0.104 |
| RRIRARPPRLPRPRPRPGTCPRP | 0.153 |
| RRIRARPPRLPRPRPRPGWKPRP | 0.167 |
| RRIRWRPPRLPRPRPRPRPAPRP | 0.865 |

| Sequence | shrunken log2 fold change |
| --- | --- |
| RRIRVRPPRLPRPRPRPLSGPRP | 0.179 |
| RRIRKRPPRLPRPRPRPHWKPRP | -0.00804 |
| RRIRMRPPRLPRPRPRPHYPPRP | -0.303 |
| RRIRMRPPRLPRPRPRPNCEPRP | 0.247 |
| RRIRVRPPRLPRPRPRPRKIPRP | -0.0978 |
| RRIRRRPPRLPRPRPRPRLWPRP | 0.273 |
| RRIRYRPPRLPRPRPRPICIPRP | -0.08 |
| RRIRQRPPRLPRPRPRPENIPRP | -0.0809 |
| RRIRYRPPRLPRPRPRPHRQPRP | -0.0423 |
| RRIRARPPRLPRPRPRPRAYPRP | 0.178 |
| RRIRCRPPRLPRPRPRPDKKPRP | -0.132 |
| RRIRPRPPRLPRPRPRPEASPRP | 0.0221 |
| RRIRRRPPRLPRPRPRPQCLPRP | 0.066 |
| RRIRNRPPRLPRPRPRPKDLPRP | -0.0125 |
| RRIRQRPPRLPRPRPRPRAHPRP | 0.638 |
| RRIRERPPRLPRPRPRPDEIPRP | -0.111 |
| RRIRSRPPRLPRPRPRPAPQPRP | 0.461 |
| RRIRIRPPRLPRPRPRPAFVPRP | -0.0212 |
| RRIRSRPPRLPRPRPRPFHPPRP | 0.0938 |
| RRIRGRPPRLPRPRPRPELFPRP | 1.63 |
| RRIRCRPPRLPRPRPRPCWFPRP | -0.386 |
| RRIRARPPRLPRPRPRPRDMPRP | 1.52 |
| RRIRSRPPRLPRPRPRPNCHPRP | -0.316 |
| RRIRKRPPRLPRPRPRPVYCPRP | -0.199 |
| RRIRDRPPRLPRPRPRPFLSPRP | 0.0846 |

From the supplement of paper PMC9112550, “Optimization of the antimicrobial peptide Bac7 by deep mutational scanning” (BMC Biology, 2022)
